Results published in patent US20250019450A1 (DIAGONAL THERAPEUTICS, published 2025).
Substitutions are numbered along the chain they refer to. Values belong to the binder of their own block, whether it stands above or below them.

Biological target: human IL-12 receptor (IL-12Rβ1 and IL-12Rβ2) on HEK-Blue IL-12 cells (human, UniProt P42701 24-662; Q99665 24-862)
Assay: cell-based or functional assay

human IL-12 receptor (IL-12Rβ1 and IL-12Rβ2) on HEK-Blue IL-12 cells, sequence (Q99665 24-862, chain 2 of 2, other chains not shown): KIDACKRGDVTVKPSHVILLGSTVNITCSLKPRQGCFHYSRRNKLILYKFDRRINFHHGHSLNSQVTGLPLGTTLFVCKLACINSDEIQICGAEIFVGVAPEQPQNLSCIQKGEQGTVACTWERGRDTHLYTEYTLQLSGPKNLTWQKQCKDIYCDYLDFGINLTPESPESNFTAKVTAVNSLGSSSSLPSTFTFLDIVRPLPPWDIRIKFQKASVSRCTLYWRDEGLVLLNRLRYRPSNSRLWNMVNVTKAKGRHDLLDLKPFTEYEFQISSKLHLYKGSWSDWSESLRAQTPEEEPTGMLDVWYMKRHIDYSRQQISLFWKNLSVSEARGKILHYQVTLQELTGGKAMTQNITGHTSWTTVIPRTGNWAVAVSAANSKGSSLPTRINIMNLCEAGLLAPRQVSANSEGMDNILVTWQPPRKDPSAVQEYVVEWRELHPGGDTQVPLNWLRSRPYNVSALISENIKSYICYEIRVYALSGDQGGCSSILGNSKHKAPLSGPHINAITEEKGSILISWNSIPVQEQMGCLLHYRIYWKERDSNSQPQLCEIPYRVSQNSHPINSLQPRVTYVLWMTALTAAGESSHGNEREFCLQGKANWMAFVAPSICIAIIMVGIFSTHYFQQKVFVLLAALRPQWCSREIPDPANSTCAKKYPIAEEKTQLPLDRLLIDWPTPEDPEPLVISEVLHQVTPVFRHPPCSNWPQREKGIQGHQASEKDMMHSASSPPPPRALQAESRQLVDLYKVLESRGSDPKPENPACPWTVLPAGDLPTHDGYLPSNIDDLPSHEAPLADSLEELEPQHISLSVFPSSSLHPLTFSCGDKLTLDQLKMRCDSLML

B1: DGL479 (bispecific antibody, V domains shown)
V domain 1: QVQLVESGGGLVQAGGSLRLSCAAPGRYAVGWFRQAPGKEYEFVAAITVSGGSKYYEDSVKGRFAISRDNAKNTVYLQMNSLKAEDTAVYYCAARTPKFGSGWYNRRGEYDYWGQGTQVTVEP
V domain 2: QVQLVESGGGLVQAGGSLRLSCAASGRTFSSYAMGWFRQAPGKEREFVSAISWSGLSTYYVESVQGRFTISRDNAKNTVYLQMNSLKPEDTAVYYCAASRIYTNYVARSYEYDDWGQGTQVTVEP
Max Absorbance: 0.29

B2: DGL490 (bispecific antibody, V domains shown)
V domain 1: QVQLVESGGGLVQAGGSLRLSCAASARIFNSYAVAWFRQTPGKEREFVASISWSGGSTNYADSVKGRFTISRDNAKNTVFLQMNSLKPADTAVYYCAADRNYYPSVLGKYTYWGQGTQVTVEP
V domain 2: B1 V domain 2
Max Absorbance: 0.25

B4: DGL461 (bispecific antibody, V domains shown)
V domain 1: EVQLVESGGGLVQPGGSLRLSCAASGFTFQNYAMSWLRKAPGEGLEWVSVINSGGGSTLYADSVKGRFTISRDNAKNTLYLQMHSLKSEDTAVYFCAKRRDDSTFGSLLYTHRGQGTQVTVEP
V domain 2: QVQLVESGGGLVQPGGSLRLSCAASGFTFEPYDMSWFRQAPGKGPEWVSAIDKGGGAGATYYADSVKGRFTISRDNAKKTLYLQMKSLKPEDTAVYYCAITAGPYSDSTPRVAYRGEGTQVTVEP
Max Absorbance: 0.31

B5: DGL413 (bispecific antibody, human IgG1, kappa)
heavy 1: not shown
heavy 2: QVQLVESGGGLVQAGGSLRLSCAASGRTFSRYRMGWFRQAPGKEREFVAAITKSGATTYDADSVKGRFTISRDNAKNTLYLQMNSLKPEDTAVYYCAASYHSNWWPKNADEYAYWGQGTQVTVEPKSSDKTHTCPPCPAPEAAGAPSVFLFPPKPKDTLMISRTPEVTCVVVDVSHEDPEVKFNWYVDGVEVHNAKTKPREEQYNSTYRVVSVLTVLHQDWLNGKEYKCKVSNKALPAPIEKTISKAKGQPREPQVCTLPPSRDELTKNQVSLSCAVKGFYPSDIAVEWESNGQPENNYKTTPPVLDSDGSFFLVSKLTVDKSRWQQGNVFSCSVMHEALHNRFTQKSLSLSPG
light: DIQMTQSPSSLSASVGDRVTITCRASQGIGNYLAWFQQRPGKAPKSLIYAASSLQSGVPSKFSGSGSGTDFTLTISSLQPADFAIYYCQQYNIYPYTFGPGTRLEIKRTVAAPSVFIFPPSDEQLKSGTASVVCLLNNFYPREAKVQWKVDNALQSGNSQESVTEQDSKDSTYSLSSTLTLSKADYEKHKVYACEVTHQGLSSPVTKSFNRGEC
Max Absorbance: 0.29

B8: DGL453 (bispecific antibody, V domains shown)
V domain 1: QVQLQESGGALVQPGGSLRLSCVVSGFTSDYFAIGWFRQAPGKEREGVSCIGSSDGSTIYSDSVKGRFTISRDNAKNTVYLQMNSLKPEDTGVYYCALDRGRRTIIGYACYATMKYWGKGTPVTVEP
V domain 2: QVQLVESGGGLVQPGGSLRLSCAASGFTFSNYAMSWIRQGPERGFEWVSRINSGGGTTSYADSVKGRFTISRDNAKNTLYLQMNSLKPEDTAVYYCAKHSHPDYSSNYYRPGQGTQVTVEP
Max Absorbance: 0.25

B14: DGL496 (bispecific antibody, V domains shown)
V domain 1: EVQLVESGGGLVQAGGSLRLSCAASGLTFRNYAMAWFRQAPGKEREFVAGITWGGGLTHYVDSVKGRFTISRDNGKNTVYLQMNSLKSEDTAVYYCAGKTQGSTWYHLTPDGYDYWGQGTQVTVEP
V domain 2: QVQLVESGGGLVQPGGSLRLSCAASGFTFSSKAMHWFRQAPGKGLEWVSSINSGGAITYYKDSVKGRFTVSRDNAKNILYLEMNSLKPEDTALYYCATDTDGRTRGQGTQVTVEP
Max Absorbance: 0.27

B15: DGL397 (bispecific antibody, human IgG1, kappa)
heavy 1: not shown
heavy 2: QVQLVESGGGLVQAGGSLRLSCAASGRIFSAYRMGWFRQAPGKEREFVAGITWRGQTTYYAASVKGRFTISKDNAKKTVYLQMNSLKPEETAVYYCAVETNGLGRWDRPSEYDYWGQGTQVTVEPKSSDKTHTCPPCPAPEAAGAPSVFLFPPKPKDTLMISRTPEVTCVVVDVSHEDPEVKFNWYVDGVEVHNAKTKPREEQYNSTYRVVSVLTVLHQDWLNGKEYKCKVSNKALPAPIEKTISKAKGQPREPQVCTLPPSRDELTKNQVSLSCAVKGFYPSDIAVEWESNGQPENNYKTTPPVLDSDGSFFLVSKLTVDKSRWQQGNVFSCSVMHEALHNRFTQKSLSLSPG
light: DIQLTQSPSFLSASVGDRVTITCRASQGISSYLAWYQQQPGKPPKLLIYAASTLHSGVPSRFSGSGSGTEFTLTISSLQPEDFATYYCQQLNRYPYTCGQGTKLEIKRTVAAPSVFIFPPSDEQLKSGTASVVCLLNNFYPREAKVQWKVDNALQSGNSQESVTEQDSKDSTYSLSSTLTLSKADYEKHKVYACEVTHQGLSSPVTKSFNRGEC
EC50: 1.6e-11 M (implied)
Max Absorbance: 0.28

B16: DGL405 (bispecific antibody, human IgG1, kappa)
heavy 1: not shown
heavy 2: B15 heavy 2
light: DIQLTQSPSFLSASVGYRVTITCRASQGISSYLAWYQQKPGKAPQLLIYAASTLQSGVPSRFSGRGSGTEFTLTISSLQPEDFATYYCQQLNGYPFTFGPGTKVNIKRTVAAPSVFIFPPSDEQLKSGTASVVCLLNNFYPREAKVQWKVDNALQSGNSQESVTEQDSKDSTYSLSSTLTLSKADYEKHKVYACEVTHQGLSSPVTKSFNRGEC
Max Absorbance: 0.26

B17: DGL395 (bispecific antibody, human IgG1, kappa)
heavy 1: not shown
heavy 2: QVQLVESGGGLVQAGGSLRLSCAASGRTFSSYAMGWFRQAPGKEREFVSAISWSGLSTYYVESVQGRFTISRDNAKNTVYLQMNSLKPEDTAVYYCAASRIYTNYVARSYEYDDWGQGTQVTVEPKSSDKTHTCPPCPAPEAAGAPSVFLFPPKPKDTLMISRTPEVTCVVVDVSHEDPEVKFNWYVDGVEVHNAKTKPREEQYNSTYRVVSVLTVLHQDWLNGKEYKCKVSNKALPAPIEKTISKAKGQPREPQVCTLPPSRDELTKNQVSLSCAVKGFYPSDIAVEWESNGQPENNYKTTPPVLDSDGSFFLVSKLTVDKSRWQQGNVFSCSVMHEALHNRFTQKSLSLSPG
light: B16 light with Y17D, Y32F, Q45K, R65S, N105D
EC50: 2.3e-10 M (implied)
Max Absorbance: 0.26

Other lines, results leading:

Max Absorbance: 0.31
B3: DGL603 (bispecific antibody, V domains shown)
V domain 1: B4 V domain 1
V domain 2: QVQLVESGGGLVQPGGSLRLSCAASGFTFSNYAMSWVRQAPGKGLEWVSAINSDGTSTSYADSVKGQFTISRDNAKNTLYLQMNSLKPEDTAVYYCTKWEGDTDSDYKFKDYWGQGTQVTVEP

Max Absorbance: 0.32
B6: DGL497 (bispecific antibody, V domains shown)
V domain 1: B14 V domain 1
V domain 2: B8 V domain 2

Max Absorbance: 0.28
B7: DGL508 (bispecific antibody, V domains shown)
V domain 1: B14 V domain 1
V domain 2: QVQLVESGGGLVQAGGSLRLSCAASGRTFSRYIMGWFRQATGKEREFVAAISWSGLSTHYADSVQGRFTISRDNAENTVYLQMNSLKPEDTAVYYCAADRHWETRLLPREYDYWGQGTQVTVEP

Max Absorbance: 0.26
B9: DGL505 (bispecific antibody, V domains shown)
V domain 1: B14 V domain 1
V domain 2: QVQLVESGGGLVQLGDSLRLSCAASGRGFSSWTMAWFRQALGKRREFVAAITATGARTSSAESEGRFTISRDNAKNMVFLQMNSLKAEDTAVYYCAATGIASWDPGMADKYTYWGQGTQVTVEP

Max Absorbance: 0.31
B10: DGL506 (bispecific antibody, V domains shown)
V domain 1: B14 V domain 1
V domain 2: QVQLVESGGGLVQAGGSLKLSCAASGGTFSSYAMGWFRQAPGKEREFVAAIMRSGGTTVYVNSVKGRFTVSRDNAKNTVYLQMNSLKPEDAAVYYCAAGRPVSRTSYYTYTYPHDYDYWGQGTQVSVEP

Max Absorbance: 0.27
B11: DGL518 (bispecific antibody, V domains shown)
V domain 1: EVQLVESGGGLVQPGGSLRLFCAASRSIFNINIMGWYRQAPGKQREWLASITSGGSTFYADSVKDRFTISRDSVKNTVYLQMNSLKPEDTAAYYCNRYRSVPLNTVYPWGQGTLVTVEP
V domain 2: QVQLVESGGGLVRPGGSLRLSCAASGFTFSSNGMHWFRQAPGKGLEWVSSIGSGGTSIYYADSVKGRFTISRDNAKNTLYLQMNSLKSDDTAVYYCSKEVTGATRGQGTQVTVEP

Max Absorbance: 0.33
B12: DGL594 (bispecific antibody, V domains shown)
V domain 1: EVQLVESGGGLVQAGGSLRLSCAASGSKFSFNAMGWYRQTPGKQRELVAIIINGDMINYADSVKGRFTISRDNAKNTMYLQMNSLKPEDTAVYYCKMTRYVYDYWGQGTQVTVEP
V domain 2: B14 V domain 2

Max Absorbance: 0.32
B13: DGL587 (bispecific antibody, V domains shown)
V domain 1: QVQLVESGGGLVQAGGSLRLSCAASGRTFSSYVMGWFRQAPGQEREFVAAIMRNGIMTYYADSVKGRFTISRDNAKNTVYLQMNTLKPDDTAVYYCAAASRVGVSISQSSSYTSWGQGTQVTVEP
V domain 2: B14 V domain 2
